Where no end group is shown, it is not given here. The star is where a group is joined. Biotin = O=C1N[C@H]2[C@H](CS[C@H]2CCCCC(=O)*)N1
How the values were obtained:
[1] = target: T1, β2-AR-mCerulean (human, UniProt P07550 1-413); experiment: pull-down; binding step of the binding-and-release assay: 30 μM biotinylated Gα peptide and 100 μM isoproterenol mixed 5 min with native membranes (10 nM β2-mCer) in 20 mM HEPES, 100 mM NaCl, 45 mM KCl, 5 mM MgCl2, pH 7.4; complex depleted with streptavidin-coated magnetic beads; unbound receptor from mCer fluorescence of the supernatant; KD estimated from a single point; conditions: one partner purified
T1 construct: human β2-adrenergic receptor, cDNA from Open Biosystems; Constructed 'in a similar manner' to the SPASM sensors; m1 stands for it there; also called β2-mCer; β2-mCerulean; source: HEK293T, transiently transfected, native membranes

[2] = target: T1, β2-AR-mCerulean; experiment: cell-based or functional assay

Kd [1] [µM]	activation of endogenous Gs (BODIPY-FL-GTPγS) after fenoterol in native membranes with β2-AR-mCherry, with 30 μM Qp against no peptide [2] [fold]	Binder
> 200	–	Biotin-DTENIRFVFAAVKDTILQLNLKEYNLV (Gαq C-terminal α5 peptide (Qp), last 27 residues of Gαq; also called bioQp; bioQP; source: synthetic peptide (GenScript); not shown: biotin, N-terminal, kept) [biotinylated Qp]
–	~7	DTENIRFVFAAVKDTILQLNLKEYNLV [Qp (Gαq C terminus peptide)]
~30	–	Biotin-DTENIRRVFNDCRDIIQRMHLRQYELL [biotinylated Sp]

Reference: paper PMC6811539, “Minute-scale persistence of a GPCR conformation state triggered by non-cognate G protein interactions primes signaling” (Nature Communications, 2019)
